Target: T1, SBP-tagged ASXL1^450–1,300 (human, UniProt Q8IXJ9 450-1300)
T1 construct: ASXL1, human, residues 450–1,300; cDNAs encoding SBP and ASXL1 450-1,300 cloned into pRK7-N-Flag; also called ASXL1 (residues 450–1,300); ASXL^450–1,300; source: HEK293T, overexpressed, immobilized to Streptavidin beads
T1 sequence (looked up): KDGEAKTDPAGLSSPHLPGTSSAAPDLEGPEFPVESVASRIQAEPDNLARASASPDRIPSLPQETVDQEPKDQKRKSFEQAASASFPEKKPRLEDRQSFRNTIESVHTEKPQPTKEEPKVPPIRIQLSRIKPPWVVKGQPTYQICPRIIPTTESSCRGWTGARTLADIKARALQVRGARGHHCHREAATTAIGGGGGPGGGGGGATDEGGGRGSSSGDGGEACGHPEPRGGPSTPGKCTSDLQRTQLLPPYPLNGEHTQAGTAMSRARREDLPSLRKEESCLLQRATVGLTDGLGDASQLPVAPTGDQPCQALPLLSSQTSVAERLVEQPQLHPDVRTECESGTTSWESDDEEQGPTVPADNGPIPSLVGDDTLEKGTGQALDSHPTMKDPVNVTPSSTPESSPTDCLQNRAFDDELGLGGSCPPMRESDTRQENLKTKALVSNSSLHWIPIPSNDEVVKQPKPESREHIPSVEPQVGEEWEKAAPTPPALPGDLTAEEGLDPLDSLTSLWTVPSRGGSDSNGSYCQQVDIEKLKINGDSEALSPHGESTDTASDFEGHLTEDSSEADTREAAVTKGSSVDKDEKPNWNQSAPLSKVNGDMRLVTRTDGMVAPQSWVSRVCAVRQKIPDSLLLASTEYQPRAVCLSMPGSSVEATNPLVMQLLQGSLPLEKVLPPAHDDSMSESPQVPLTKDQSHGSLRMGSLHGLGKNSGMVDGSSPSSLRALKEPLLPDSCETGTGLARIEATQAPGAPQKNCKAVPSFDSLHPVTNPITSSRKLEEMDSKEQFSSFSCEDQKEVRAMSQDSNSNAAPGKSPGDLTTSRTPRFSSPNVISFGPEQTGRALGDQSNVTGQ
Assay: pull-down; SBP-tagged ASXL1^450–1,300 immobilized to Streptavidin beads, incubated with Flag-peptide-eluted FOXK1 at 4 °C for 3 h, washed 3 times, SDS-PAGE and Coomassie blue staining
Conditions: both partners purified

B1: Flag-tagged full-length FOXK1 protein (natural protein, human, UniProt P85037 1-733, looked up)
chain: MAEVGEDSGARALLALRSAPCSPVLCAAAAAAAFPAAAPPPAPAQPQPPPGPPPPPPPPLPPGAIAGAGSSGGSSGVSGDSAVAGAAPALVAAAAASVRQSPGPALARLEGREFEFLMRQPSVTIGRNSSQGSVDLSMGLSSFISRRHLQLSFQEPHFYLRCLGKNGVFVDGAFQRRGAPALQLPKQCTFRFPSTAIKIQFTSLYHKEEAPASPLRPLYPQISPLKIHIPEPDLRSMVSPVPSPTGTISVPNSCPASPRGAGSSSYRFVQNVTSDLQLAAEFAAKAASEQQADTSGGDSPKDESKPPFSYAQLIVQAISSAQDRQLTLSGIYAHITKHYPYYRTADKGWQNSIRHNLSLNRYFIKVPRSQEEPGKGSFWRIDPASEAKLVEQAFRKRRQRGVSCFRTPFGPLSSRSAPASPTHPGLMSPRSGGLQTPECLSREGSPIPHDPEFGSKLASVPEYRYSQSAPGSPVSAQPVIMAVPPRPSSLVAKPVAYMPASIVTSQQPAGHAIHVVQQAPTVTMVRVVTTSANSANGYILTSQGAAGGSHDAAGAAVLDLGSEARGLEEKPTIAFATIPAAGGVIQTVASQMAPGVPGHTVTILQPATPVTLGQHHLPVRAVTQNGKHAVPTNSLAGNAYALTSPLQLLATQASSSAPVVVTRVCEVGPKEPAAAVAATATTTPATATTASASASSTGEPEVKRSRVEEPSGAVTTPAGVIAAAGPQGPGTGE
notes: FOXK1, human, full-length cDNA; Vector pRK7-N-Flag; source: HEK293T, overexpressed, purified by immunoprecipitation and eluted by Flag peptide; not shown: Flag, N-terminal, kept
  binding result: binds

Reference: paper PMC8225741, “Tumor-derived neomorphic mutations in ASXL1 impairs the BAP1-ASXL1-FOXK1/K2 transcription network” (Protein & Cell, 2020)
